Laboratory results reported in the DeepSol protein solubility set.

Assay: soluble on expression in E. coli; label from the status in PepcDB or PDB records

Sequence | soluble on expression in E. coli
EYVYIMTPYLILDSELEHAIQFAAERGVDVRIIMPGIPDKPIPYALAKTYYQALTKSGVKIYEYTLGFVHSKIFLSDNTKAVVGTINLDYRSLYHHFECAVYLYKVDAIQDIYRDYMDTLNKSRLVSLKDINNI | not soluble
FAKQKKESVISAISTVNPQELKVPSSNLTTALAGRMSGLIAFQTTGEPGKDNAQFFVRGATTFGYKKDPLILIDNIELSTDDLARLNVDDIAQFSIMKDATATALYGARGANGVILVTTKQGVAG | not soluble
FEHVLVFAPTGSGKTRSIGIPNLFNYPYSVVCNDVKLTLFRTTSGYRERVLGHRCFCWAPADENRITHCYNPLSLISEDKIQRLTDIQRIAHILMPDNKKSDPIWQQASRKLFKVAVLYLLDTPERPTTLGEINRLVKQAGFDDWLASVLEETNHLDPEFYRNGYSYLNNHEKTRSSILETFSGYFELFDDPTIDAATARSDFDLRQLRREKITIYIGFTDDDMERLSPLLTLFWQQLISVMIKNIPDPVDEPYPLLCLIDEFSSLGRIERLRRSLKLLREYRVRCVLIMQYIAQTYEQYTHDEAKAFTNIKTKIAFATEDIFDAEYVSKLLGTRTVKVSAGSTSTQTQGYSESKSYNYQAIPLLRPDEVMRLPEDQTLIMRTGHAPVKAEQMVWY | not soluble
FERGHEFSFAQAVRLLRLLAAAQGREGACPCGVRVRPELSLSFPVADVARIERQSDGYRITARFLGLYGPSSPLPTFYTEELIDEEREDGSASRDFLDVLSHRIFDLWVAGDAKYRLFNRVVEDGSGDDLERLFCLAGLDLAQGQTVLPESGRWLRYVGLLGQVPRSALGLRTMVADALGVPVEVIPCQHRQVSIPPGQRLAVGIAASSLGIDTVVGTNLDDRLGMFRLCLGPLSREQFADLLPGAPGRSTLDLIVELYLDAPLAWDVELTLAPGETPEARLGACRGARVGWDTWLGV | not soluble
FFSGLFQRKSDAPVTTPAELADAIGLSYDTYTGKQISSQRAMRLTAVFSCVRVLAESVGMLPCNLYHLNGSLKQRATGERLHKLISTHPNGYMTPQEFWELVVTCLCLRGNFYAYKVKAFGEVAELLPVDPGCVVYALGRCQRWPEGDRRECYSAR | soluble
FGLKNNPSSSRPEGLLFYEYQQAKPKQQTAHFALDQMIYEINQSFGYEIIQRAKKLAAS | not soluble
FINNPNRHFANNYHFAKELALELKKQDVLELATAPSLQKRLRFYGIKNSNKFYLKALKQADKHDMDKKIVKVKLGKYEKVYQILNYD | not soluble
FKRVSKAAVTASVTVIKAEDLVNTPVANPMELLQGRVPGLNIQMNNGTPGGLPSFSIRGVSDISVQSSGDGEFMMGLTPPLFVVDGIPQEDVTGYDAAGLLSGATVSPLAMIPLEDIANIQVLKDAAATSLYGSKGAYGVILIETKRGETA | not soluble
FPSQDQYLAGLLETPEQKIRAYVLFAHCFTCGKDVAAASRISRFLVQHGFAVFRFDFTGLGNSDGDFANTNFSSNTEDLVSAAYFLEQNYEAPQLLIGHSLGGAAVLAMASQLPKVKGVVTIGAPYEASHVIHNFDAHLEKIDQSGSAKVSLGSREFTIKKQFLDDLRNQTTEHIQHLNKALLVLHSPIDLTVDISDAEKIYKAAKHPKSFVSLDTADHLLSKSIDSEYVAQTISGWASRYIP | not soluble
FPTPKPVPAPQQAAQQQAVTASAEAALAPATPITVTTDTVQAVIDEKSGDLRRLTLLKYKATGDENKPFILFGDGKEYTYVAQSELLDAQGNNILKGIGFSAPKKQYSLEGDKVEVRLSAPETRGLKIDKVYTFTKGSYLVNVRFDIANGSGQTANLSADYRIVRDHSEPEGQGYFTHSYVGPVVYTPEGNFQKVSFSDLDDDAKSGKSEAEYIRKTPTGWLGMIEHHFMSTWILQPKGRQSVCAAGECNIDIKRRNDKLYSTSVSVPLAAIQNGAKAEASINLYAGPQTTSVIANIADNLQLAKDYGKVHWFASPLFWLLNQLHNIIGN | not soluble
FQVPMSNLLTVHQNLPALPVDATSDEVRKNLMDMFRDRQAFSEHTWKMLLSVCRSWAAWCKLNNRKWFPAEPEDVRDYLLYLQARGLAVKTIQQHLGQLNMLHRRSGLPRPSDSNAVSLVMRRIRKENVDAGERAKQALAFERTDFDQVRSLMENSDRCQDIRNLAFLGIAYNTLLRIAEIARIRVKDISRTDGGRMLIHIGRTKTLVSTAGVEKALSLGVTKLVERWISVSGVADDPNNYLFCRVRKNGVAAPSATSQLSTRALEGIFEATHRLIYGAKDDSGQRYLAWSGHSARVGAARDMARAGVSIPEIMQAGGWTNVNIVMNYIRNLDSETGAMVRLLEDGD | soluble
FSIAVTGATGQLGGLVIQHLMAAVPASQIIAIVRNVEKASTLADQGVEVRHGDYNQPESLQKAFAGVSKLLFISGPHYDNTLLIVQHANVVKAARDAGVKHIAYTGYAFAEESIIPLAHVHLATEYATRTTNIPYTFLRNALYTDFFVNEGLRASTESGAIVTNAGSGIVNSVTRNELALAAATVLTEEGHENKTYNLVSNQPWTFDELAQILSEVSGKKVVHQPVSFEEEKNFMVNAGVPEPFAEITAAIYDAISKGEASKTSDDLQKLIGSLTPLKETVKQALKM | soluble
FYGEKATLNDGKLTSAELSQMTISGEKHVTEEEFGYCTEYVLKLGMSVSQEVEKQKFNQKKFESKVSKIATSVVVASDKDNGFVKVHAHTEKPNLLLELGLNYGEFELVKIENMNLQVAKQKPAPVKRNIKPAIVVTVPTEAFADRIREDYDIQAILCTDDTGAPSVFSLLEAVKLTHSSNIIFLLHDKNYFLSANEALKQLKHQKISADCVMTTNPIESLAALTVFNSDLNIHTNVKTMRRFVKGFASATITQASKKYKENRIEVNKGDFIAVANNSICVSEKELVQCVFNTIDHLLKKVKKPEFLLAYYGKDITAEEAEAMKEKIEKKYKLFCEFSPGEQKVFSYILGIQ | soluble
GAAASIQTTVNTLSERISSKLEQEANASAQTKCDIEIGNFYIRQNHGCNLTVKNMCSADADAQLDAVLSAATETYSGLTPEQKAYVPAMFTAALNIQTSVNTVVRDFENYVKQTCNSSAVVDNKLKIQNVIIDECYGAPGSPTNLEFINTGSSKGNCAIKALMQLTTKATTQIAPKQVAGTGVQ | soluble
GAITKAVFDNEQGQAQRLQTSSSVEHGQMLFKDANLKTPSDVLNAFAKLDSKMVKSHAAELSQLAERAMTEVMLETDSGKNLKALIGDDAVKSLAVRVVKDYGGGVAAAQKNPEVRINQMQAVFDMEVMHLKAAQRHIEGLASTDLNQGVYAEGLPEDAFNKAGVTNNVERAAAWIINASNSKGNDAENITSLLKEYATNGKDLLNMDNLKELHARLVPNVERDYRGPNISGGTLPSSIGGEGMLKQHIEGFLKENPVADKDLGKHLFAGVIGYHGFTDGNGRMGRMLYAIAELRNDSFNPLAMNAENSLHGIK | soluble
GAMAGSIRSKLSAIDVRQLGTVDYRTAWQLQRELADARVAGGADTLLLLEHPAVYTAGRRTETHERPIDGTPVVDTDRGGKITWHGPGQLVGYPIIGLAEPLDVVNYVRRLEESLIQVCADLGLHAGRVDGRSGVWLPGRPARKVAAIGVRVSRATTLHGFALNCDCDLAAFTAIVPCGISDAAVTSLSAELGRTVTVDEVRATVAAAVCAALDGVLPVGDRVPSHAVPSPL | soluble
GAMAWGSSWLLLKNLTAQIDGPTLRTLCMQHGPLVSFHPYLNQGIALCKYTTREEANKAQMALNNCVLANTTIFAESPSENEVQSIMQH | soluble
GAMDPAVMKIEYYSQVLDMEWGVNVLYPDANRVEEPECEDIPVLYLLHGMSGNHNSWLKRTNVERLLRGTNLIVVMPNTSNGWYTDTQYGFDYYTALAEELPQVLKRFFPNMTSKREKTFIAGLSMGGYGCFKLALTTNRFSHAASFSGALSFQNFSPESQNLGSPAYWRGVFGEIRDWTTSPYSLESLAKKSDKKTKLWAWCGEQDFLYEANNLAVKNLKKLGFDVTYSHSAGTHEWYYWEKQLEVFLTTLPIDFKLEERLT | soluble
GAMGMESLFPNKGEIIRELLKDPLILKNDSKRSNGSELELDSSDLLQREAILANELNILDNLKTFLNLIKEVKTNLNILELENCYYSLQSLRKKMRNNAAYLKQSFNFQQSISTYVDTLHLELVSTLYKILTNGFWKITENSIQFTPTVEWGKDKVHIEYDTFMDFVAQQYFPKGSLDNQAWFILDMTSADSQEQVRAKLNTIMKEYMNLSRIVSMIKNSIFISGKEISYENEKNILVFSKSSSHGQHCVSTVLTSFEAVCDFMLDGLAFRDRKTLSYELGPLFNTEFTKFVKNNASIILESLDSPLKNLVSVINNKLTRLVAKSEVTNWTHSGKEIQDLLMNKQLYYNLLLDKVLESHISEIRS | soluble
GAPSQGATANAETQTTIPLGDTSQNALDWPGVYEGVLPCASCEGIQTTLTLQADNSFELKSIYLGKDESIFKVAGKFDWDSNGSKITLSDGSKYLVGENQLLMLDTEGNRITGGLAEHYILKKKGM | soluble
GAQRRNEIQVPDLDGYTTLKCDFHMHSVFSDGLVWPTVRVDEAYRDGLDAISLTEHIEYRPHKQDVVSDHNRSFDLCREQAEKLGILLIKGSEITRAMAPGHFNAIFLSDSNPLEQKDYKDAFREAKKQGAFMFWNHPGWDSQQPDTTKWWPEHTALYQEGCMHGIEVANGHLYMPEAIQWCLDKNLTMIGTSDIHQPIQTDYDFEKGEHRTMTFVFAKERSLQGIREALDNRRTAAYFHELLIGREDLLRPFFEKCVKIEEVSRNEQGVTLSITNVTDLVLKLKKTAHDTLLVYFRDMTLKPHTRYTVRIGFKQGIKGGDVNFEVTNFIVAPDKGLKYTISL | soluble
GATCLSQYCADKARDGVCDEACNSHACQWDGGDCSLTMENPWANCSSPLPCWDYINNQCDELCNTVECLFDNFECQGNSKTCKYDKYCADHFKDNHCNQGCNSEECGWDGLDCAADQPENLAEGTLVIVVLMPPEQLLQDARSFLRALGTLLHTNLRIKRDSQGELMVYPYYGEVAGSKVFLEIDNRQCVQDSDHCFKNTDAAAALLASHAIQGTLSYPLVSVVSESLTPERTQ | soluble
GCDLERYPLTDLSEETFWNSESNAELALTSLYRGSLTDGVEYNPSDWWSYHGMIMMEHLSDNAFDRRGENNPFFKISSGNLTADNAFIKRYWETSYKRIGYCNRFLVGIQNSSESEKKTRMIAEARFLRATQYFYLASYFKNVPLVENVLTGEEANNVTKTSQADILKWCVTEFTAAAADLPRFSAIPAGEAGRACKQAALAFLGRTCMLQKDWKSGAKAFHDIMELGDNAINANYQELFYPSTGTSNKENIFYIQYLENYLGTGLPQHALSAKDGGWSLVNPAADLYESYEFKDGTPFSYDDPRYDPSNLGKDRDPRLDYTIYYNGAIFMGTEYKMSPDYSAAKKEKLDYTSEASRTGFMMRKYFEESTPINDVQSANGLTPVIRYAEVLLGYLECLVEDNQTITQGILDETINAVRGRASVNMPPVTEVTPAKLREIVRHERRIELAMEGIRYWDIMRWGIAHEVLSQKIWGAPYPGSTQYATTTKEVDPTGNYRWYVGKRAFRNPTDYTWPIPQSEQNINPNLRD | soluble
GDFIVVQSTTSTQNSGLLDHILPAFEAETGIEVRVVAVGTGQAIRNAANGDGDVLLVHAKAAEEKFVAEGWGVERFDVMYNDFVLVGPASDPAGVRGGSDIVAALSAIAGAEAPFASRGDDSGTHKAELRHWASAGIDVSAASGGWYRETGSGMGATLNLAAGMGAYALSDRATWIAFGNKGDLVVAVEGDARLFNQYGVILVNPAKHPGVKAEAGQRFIDWLTGDEGQAAIAGYTL | not soluble
